Results on 1 molecule are retold here after paper PMC3541284 (Autophagy, 2012).

The assay has as its target 6xHis-GABARAP (UniProt O95166 1-117). Kind of assay: pull-down.

6xHis-GABARAP, sequence (O95166 whole entry): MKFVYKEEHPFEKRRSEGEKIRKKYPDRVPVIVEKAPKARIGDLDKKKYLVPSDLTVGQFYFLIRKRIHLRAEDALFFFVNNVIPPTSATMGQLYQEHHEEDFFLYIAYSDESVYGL

B1: GST-MAPK15_300–373_WT (domain or fragment, UniProt Q8TD08 300-373, looked up)
chain: QHPYVQRFHCPSDEWAREADVRPRAHEGVQLSVPEYRSRVYQMILECGGSSGTSREKGPEGVSPSQAHLHKPRA
On to B1, for which the binding result is listed as “binds”.
